Laboratory results taken from patent US20030088884A1.

How the values were obtained:
[1] = biological target: human LGR8, recombinant, expressed in 293T cells (human) (UniProt Q8WXD0); assay: competition with 5 nM biotinylated ovine INSL3 for 293T cells expressing LGR8, 4 C 24 h, 125I-streptavidin detection
[2] = biological target: human LGR7, long form (LGR7(1), 757 amino acids), recombinant, expressed in 293T cells (human), Q9HBX9; assay: cell-based or functional assay
Sequence of human LGR7, long form (LGR7(1), 757 amino acids), recombinant, expressed in 293T cells (human), Q9HBX9 (Q9HBX9 whole entry): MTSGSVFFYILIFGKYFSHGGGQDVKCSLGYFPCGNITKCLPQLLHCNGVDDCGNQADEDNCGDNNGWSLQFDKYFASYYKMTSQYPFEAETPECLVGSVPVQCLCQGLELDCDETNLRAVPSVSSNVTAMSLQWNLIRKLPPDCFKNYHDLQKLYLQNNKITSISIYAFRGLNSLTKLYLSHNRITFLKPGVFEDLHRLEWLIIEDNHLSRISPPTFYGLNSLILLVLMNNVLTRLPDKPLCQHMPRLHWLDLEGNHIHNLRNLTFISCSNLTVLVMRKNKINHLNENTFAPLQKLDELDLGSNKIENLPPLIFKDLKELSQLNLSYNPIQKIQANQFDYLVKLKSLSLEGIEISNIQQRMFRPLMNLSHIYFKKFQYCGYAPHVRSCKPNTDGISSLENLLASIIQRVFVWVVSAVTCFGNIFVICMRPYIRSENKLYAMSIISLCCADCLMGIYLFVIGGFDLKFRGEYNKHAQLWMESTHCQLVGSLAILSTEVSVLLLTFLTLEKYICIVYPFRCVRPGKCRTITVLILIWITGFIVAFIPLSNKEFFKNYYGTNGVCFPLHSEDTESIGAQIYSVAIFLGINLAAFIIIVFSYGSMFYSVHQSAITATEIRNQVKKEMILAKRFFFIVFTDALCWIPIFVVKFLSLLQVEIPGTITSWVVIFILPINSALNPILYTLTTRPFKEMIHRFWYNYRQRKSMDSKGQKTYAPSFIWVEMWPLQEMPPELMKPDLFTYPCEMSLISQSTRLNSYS

Sequence of UniProt Q8WXD0 (Q8WXD0 whole entry): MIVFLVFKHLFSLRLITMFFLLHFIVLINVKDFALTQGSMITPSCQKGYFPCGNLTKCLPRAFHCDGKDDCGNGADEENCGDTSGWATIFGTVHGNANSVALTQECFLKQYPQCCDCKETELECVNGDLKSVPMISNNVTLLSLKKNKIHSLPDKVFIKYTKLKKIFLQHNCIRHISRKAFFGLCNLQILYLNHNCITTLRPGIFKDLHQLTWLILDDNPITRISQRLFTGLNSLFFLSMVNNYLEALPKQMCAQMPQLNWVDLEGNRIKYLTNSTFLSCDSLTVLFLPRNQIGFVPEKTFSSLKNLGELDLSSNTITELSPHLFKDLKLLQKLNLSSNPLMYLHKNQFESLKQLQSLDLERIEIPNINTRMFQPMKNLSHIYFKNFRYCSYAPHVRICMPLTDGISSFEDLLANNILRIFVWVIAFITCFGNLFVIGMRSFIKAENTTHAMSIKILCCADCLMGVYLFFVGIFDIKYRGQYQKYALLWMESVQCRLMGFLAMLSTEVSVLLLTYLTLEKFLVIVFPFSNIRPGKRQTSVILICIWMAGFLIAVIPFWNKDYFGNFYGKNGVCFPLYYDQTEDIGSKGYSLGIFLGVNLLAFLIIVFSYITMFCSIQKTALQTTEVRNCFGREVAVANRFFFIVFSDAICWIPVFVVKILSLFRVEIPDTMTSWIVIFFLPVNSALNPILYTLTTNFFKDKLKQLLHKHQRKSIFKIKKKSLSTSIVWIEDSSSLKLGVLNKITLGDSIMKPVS

Molecule	ED50 [1] [nM]	cAMP production by 293T cells expressing human LGR7 [2] [nM]
rat INSL3, chemically synthesized (from UniProt Q9WUK0 103-128; Q9WUK0 103-128) (ligand)	12	
porcine relaxin, P01348 161-182; P01348 25-56 (ligand) chain 1: RMTLSEKCCQVGCIRKDIARLC chain 2: QSTNDFIKACGRELVRLWVEICGSVSWGRTAL		0.1
